Results on two molecules are retold here after PMC2901844 (DNA repair, 2010).

Test [1] concerns the target T1, full length Cricetulus griseus Xrcc1-ECFP (Cricetulus griseus, UniProt O54935 1-633). In words: pull-down.
In test [2] the target is Xrcc1(1–325)-ECFP (Cricetulus griseus, UniProt O54935 1-325). The test is described as follows: far-Western, overlay or dot blot.
Test [3] concerns the target T1, full length Cricetulus griseus …. The test is described as follows: far-Western, overlay or dot blot.

T1 sequence (O54935 whole entry): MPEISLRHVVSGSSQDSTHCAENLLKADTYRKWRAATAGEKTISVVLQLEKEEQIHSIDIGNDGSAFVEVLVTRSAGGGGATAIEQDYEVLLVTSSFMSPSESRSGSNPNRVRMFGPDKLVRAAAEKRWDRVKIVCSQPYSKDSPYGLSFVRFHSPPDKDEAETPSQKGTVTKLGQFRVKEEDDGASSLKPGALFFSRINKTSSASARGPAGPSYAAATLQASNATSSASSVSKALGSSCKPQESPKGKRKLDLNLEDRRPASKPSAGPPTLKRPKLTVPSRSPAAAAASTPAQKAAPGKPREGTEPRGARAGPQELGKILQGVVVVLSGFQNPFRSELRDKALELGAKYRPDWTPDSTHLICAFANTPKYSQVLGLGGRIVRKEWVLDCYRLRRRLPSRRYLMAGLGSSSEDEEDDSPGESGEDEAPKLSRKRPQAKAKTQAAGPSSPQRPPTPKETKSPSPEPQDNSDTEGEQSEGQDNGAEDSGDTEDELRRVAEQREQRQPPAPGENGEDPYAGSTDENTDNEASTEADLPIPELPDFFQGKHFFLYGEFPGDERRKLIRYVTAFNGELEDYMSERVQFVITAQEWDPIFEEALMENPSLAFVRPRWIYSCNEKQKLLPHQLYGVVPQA
Xrcc1(1–325)-ECFP, sequence (O54935 1-325): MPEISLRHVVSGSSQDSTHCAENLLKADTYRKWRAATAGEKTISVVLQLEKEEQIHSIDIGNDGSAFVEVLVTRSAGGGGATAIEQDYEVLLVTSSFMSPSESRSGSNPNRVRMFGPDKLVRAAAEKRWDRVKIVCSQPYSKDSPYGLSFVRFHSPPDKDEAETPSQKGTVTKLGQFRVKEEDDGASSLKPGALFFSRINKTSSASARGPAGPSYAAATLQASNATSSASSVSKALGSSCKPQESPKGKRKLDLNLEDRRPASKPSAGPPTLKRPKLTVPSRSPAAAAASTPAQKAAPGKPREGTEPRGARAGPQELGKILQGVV

B1: catalytic domain of human UNG2 (Δ93 UNG2) (domain or fragment, UniProt P13051-1 94-313, looked up)
chain: FGESWKKHLSGEFGKPYFIKLMGFVAEERKHYTVYPPPHQVFTWTQMCDIKDVKVVILGQDPYHGPNQAHGLCFSVQRPVPPPPSLENIYKELSTDIEDFVHPGHGDLSGWAKQGVLLLNAVLTVRAHQANSHKERGWEQFTDAVVSWLNQNSNGLVFLLWGSYAQKKGSAIDRKRHHVLQTAHPSPLSVYRGFFGCRHFSKTNELLQKSGKKPIDWKEL
With B1, the binding result in test [1] was “binds”.

B2: Cy-3 labelled Δ93 UNG2 (domain or fragment, human, UniProt P13051-1 94-313, looked up)
chain: FGESWKKHLSGEFGKPYFIKLMGFVAEERKHYTVYPPPHQVFTWTQMCDIKDVKVVILGQDPYHGPNQAHGLCFSVQRPVPPPPSLENIYKELSTDIEDFVHPGHGDLSGWAKQGVLLLNAVLTVRAHQANSHKERGWEQFTDAVVSWLNQNSNGLVFLLWGSYAQKKGSAIDRKRHHVLQTAHPSPLSVYRGFFGCRHFSKTNELLQKSGKKPIDWKEL
modifications: Cy-3 label (Cy 3 Ab Labeling kit), sites not stated
As for B2, the binding result in test [2] and in test [3] was “binds” throughout.
